In patent US10962528B2, “Blue fluorescent protein monomers and uses thereof” (WISYS TECHNOLOGY FOUNDATION, INC., priority 2015, dated 2021):
Substitutions are numbered along the chain they refer to. Names may count otherwise.

B1: SFP-VP95insGG: L135E monoSFP extended with glycine residues at position 95, SEQ ID NO:6 (protein)
chain: MFIKPGRCPKPAVQEDFDAARYLGVWYDIQRLPNKFQKGECATATYSLSPGVGFSVFNRERLANGTIKSVIGSAIAEDPCEPAKLQFFHENAAPGGVPYWVLSTDYDNYALVYSCINSFEGASHAAYASIVSRQPTLPEETIKKLQGTMSSFGVGVDTLLTTNQDAAYCSAMNQ
B2: SFP-V71E: monomeric SFP variant V71E, SEQ ID NO:2 (protein)
chain: FIKPGRCPKPAVQEDFDAARYLGVWYDIQRLPNKFQKGECATATYSLSPGEGFSVFNRERLANGTIKSVIGSAIAEDPCEPAKLQFFHENAAPVPYWVLSTDYDNYALVYSCINLGASHAAYASIVSRQPTLPEETIKKLQGTMSSFGVGVDTLLTTNQDAAYCSAMNQ
B3: SFP-L135E: monomeric SFP variant L135E, SEQ ID NO:3 (protein)
chain: B2 chain with E51V, L115E
B4: SFP-A137E: monomeric SFP variant A137E, SEQ ID NO:4 (protein)
chain: B2 chain with E51V, A117E
B5: Wild-type SFP: Sandercyanin fluorescent protein from walleye Sander vitreus mucus, biliverdin-binding lipocalin tetramer; SEQ ID NO:1 (recombinant SEQ ID NO:31) (protein, listed as Sander vitreus)
chain: MNAIQVISLTLLSVLAAKAMFIKPGRCPKPAVQEDFDAARYLGVWYDIQRLPNKFQKGECATATYSLSPGVGFSVFNRERLANGTIKSVIGSAIAEDPCEPAKLQFFHENAAPVPYWVLSTDYDNYALVYSCINLGASHAAYASIVSRQPTLPEETIKKLQGTMSSFGVGVDTLLTTNQDAAYCSAMAQ
modifications: biliverdin chromophore
B6: SFP-FH88insGG: L135E monoSFP extended with glycine residues at position 88, SEQ ID NO:5 (protein)
chain: MFIKPGRCPKPAVQEDFDAARYLGVWYDIQRLPNKFQKGECATATYSLSPGVGFSVFNRERLANGTIKSVIGSAIAEDPCEPAKLQFGGFHENAAPVPYWVLSTDYDNYALVYSCINEGASHAAYASIVSRQPTLPEETIKKLQGTMSSFGVGVDTLLTTNQDAAYCSAMNQ

Assays:
[1] = system: apoSFP; experiment: Binding of apoSFP with other tetrapyrroles monitored by fluorescence; design: species or system Sander vitreus; settings: excitation at 375 nm and 630 nm
Description: FIG. 11E Binding of apoSFP with other tetrapyrroles monitored by fluorescence on excitation at (left) 375 nm and (right) 630 nm.
To examine the specificity of Sandercyanin to bilverdin IXa, we tested other BV-like tetrapyrrol compounds: hemin, bilirubin, and esterified BV derivatives.

[2] = Photobleaching / photo-stability studies; format: physicochemical
Experimental: FIGS. 11C-11D (C) Titration of apo-SFP (20 uM) with BV IXα measured at 675 nm with λex=375 nm (green) and 630 nm (red). (D) Photo-bleaching kinetics of Sandercyanin and free-biliverdin (BV).
(§1) All experiments were performed with purified SFP samples (apo and holo forms) at pH 7.5 and room temperature. UV-Visible absorbance spectra of native and recombinant SFP were recorded from 800 to 200 nm with ultraspec 2100 pro spectrophotometer from Amersham Biosciences. CD spectra were measured on JASCO J-815 Spectropolarimeter. Steady state fluorescence, excitation, binding and photobleaching studies were monitored on Horiba Jobin Yvon Fluoromax-4 fluorimeter. Data analysis were done using Origin6 and Origin8 software. Hydrogen was exchanged with Deuterium by increasing concentrations of D2O to a standard protein concentration. Deuteriated proteins were prepared in the same buffer, incubated for 15 minutes, and monitored for spectral properties.

[3] = Fluorescence of free biliverdin in different solvent conditions; format: physicochemical; settings: increased hydrophobicity of the medium
Description: FIG. 11F Effect of hydrophobicity of solvent on fluorescence spectra of biliverdin monitored at excitation wavelengths of (left) 375 nm and (right) 600 nm. Labels are biliverdin in DMSO 1150, biliverdin in acetone 1152, biliverdin in ethanol 1154, biliverdin in benzene 1156, and biliverdin in toluene 1158.
FIG. 11G Effect of viscosity of solvent (PEG 400) on fluorescence spectra of biliverdin monitored at excitation wavelengths of (left) 375 nm and (right) 600 nm. Labels are 0% PEG400 1160, 5% PEG400 1162, 10% PEG400 1164, and 15% PEG400 1166.
We performed experiments with free biliverdin in different solvents conditions, to understand the molecular basis of the observed fluorescent properties of Sandercyanin-BV complex. […] A similar trend was observed on increasing the viscosity of medium with increased polyethylene glycol and changing the pH of medium to pH 8.8-9.5.

[4] = Biliverdin binding of SFP and monomeric variants (fluorescence titration, UV-visible absorbance)
Experimental: as §1
All SFP variants were expressed using E. coli BL21*(DE3) cells. […] Thus, refolded purified SFP was checked using an analytical gel filtration column for oligomerization state and biliverdin (BV) binding by UV-visible absorbance and fluorescence spectroscopy (FIGS. 1A-1D).
Characterization of monoSFP Variants—MonoSFP variants were characterized by size-exclusion chromatography during purification of the proteins. […] They have far-red to near infra-red fluorescence with large Stokes shift. […] To test this, we performed detergent (Triton X-100) assays with the monoSFPs and measured absorbance and fluorescence spectra. […]

[5] = Steady state fluorescence spectra and quantum yield; format: physicochemical; settings: for brightness relative to L135E monoSFP: glycine loop extension; for Quantum yield / Ex/Em1, emission / Ex/Em1, excitation: in complex with biliverdin
Experimental: as §1
Characterization of monoSFP Variants—MonoSFP variants were characterized by size-exclusion chromatography during purification of the proteins. We further characterized the spectral properties and binding-efficiencies of a few of these monoSFPs (Tables 2 and 4), and found them to be similar to wild-type SFP (FIG. 2, FIG. 3, Table 4). They have far-red to near infra-red fluorescence with large Stokes shift. […] To test this, we performed detergent (Triton X-100) assays with the monoSFPs and measured absorbance and fluorescence spectra. Further, we made attempts to extend one of the loops which encloses biliverdin in the centre of the protein. Two mutants, FH88insGG and VP95insGG, were extended with glycine residues at the 88th and 95th positions in the amino acid chain of L135E monoSFP mutant. One hypothesis was that extension would prevent photon loss due to solvent exposure of the ligand and enhance the quantum efficiency.

[6] = UV-Visible absorbance spectra; format: physicochemical
Experimental: as §1, with “All experiments were performed with purified SFP samples (apo and holo forms) at pH 7.5 and room temperature.” left out

[7] = excitation at 380 nm and 630 nm, Yu et al. 2008; cited from earlier work

Molecule	Quantum yield [5]	Ex/Em1, emission ([5]; UV/blue excitation)	Ex/Em1, excitation ([5]; UV/blue excitation)	Ex/Em1, emission ([5]; red excitation)	Ex/Em1, excitation ([5]; red excitation)	further results
C=CC1=C(C)c2cc3[n-]c(cc4[n-]c(cc5nc(cc1n2)C(C)=C5C=C)c(C)c4CCC(=O)O)c(CCC(=O)O)c3C.[Cl-].[Fe+3] [hemin]						binding and fluorescence with Sandercyanin [1]: does not show binding and fluorescence
C=CC1=C(C)/C(=C/C2=NC(=C\c3[nH]c(/C=C4\NC(=O)C(C)=C4C=C)c(C)c3CCC(=O)O)/C(CCC(=O)O)=C2C)NC1=O [Biliverdin, Biliverdin IXα, reference compound]						bleaching of free form relative to complex with Sandercyanin [2]: bleaches faster; far red fluorescence of free biliverdin [3]: enhanced far red fluorescence
B1	0.003	657 nm	380 nm	653 nm	570 nm	binding to biliverdin [4]: retained binding to biliverdin; brightness relative to L135E monoSFP [5]: did not show significantly increased brightness
B2	0.003	670 nm	380 nm	660 nm	600 nm	
B3	0.025	682 nm	380 nm	676 nm	600 nm	
B4	0.003	663 nm	380 nm	653 nm	580 nm	
B5	0.016	675 nm	375 nm	675 nm	630 nm	excitation maxima [5]: 375 nm; fluorescence intensity with D2O ([5]; increasing concentrations of D2O, no changes in the absorbance): increased fluorescence intensity; Molar extinction coefficient at 375 nm ([6]; phosphate buffer of pH 7.4, 375 nm): 21,000 M^−1 cm^−1; Molar extinction coefficient at 630 nm ([6]; phosphate buffer of pH 7.4, 630 nm): 13,500 M^−1 cm^−1; photo-stability of fluorescence ([2]; overnight exposure with UV or red light): does not bleach significantly; bleaching of fluorescence ([2]; walleye mucous cells and solution, several hours of excitation and emission): do not bleach; emission maxima [7]: 678 nm
B6	0.002	663 nm	380 nm	653 nm	570 nm	binding to biliverdin [4]: retained binding to biliverdin; brightness relative to L135E monoSFP [5]: did not show significantly increased brightness
